Key:
[1] = molecular target: T1, human CD277 (human, UniProt O00481 30-254, limits assumed); experiment: SPRi (Carterra MX96), antibody printed on chip, his-tagged antigen injected, 1:1 fit
T1 construct: The SPR method text speaks of 'purified recombinant his tagged human CD137', apparently an error for CD277; also called BTN3A1; human CD277 polypeptides
Description: The resulting anti-CD277 antibodies from different selection rounds were plotted on kd/kₐ double log plots. Apparent association and dissociation kinetic rate constants (kₐ and kd values) were determined on an SPRi reader (MX96, Carterra) in a running buffer of PBS-C 0.01%. […] antibodies were covalently printed on a Carboxymethyldextran hydrogel 50 L chip (Xantec bioanalytics) on a CFM (Carterra). Freshly mixed activating reagents ([…] 0.4 M EDC and […] 0.1 M sulfo-NHS in H2O) were used to activate the surface of the SPR substrate for 7 minutes. Antibodies at 10 mg/ml in acetic acid buffer pH 4.5 were used for printing for 15 minutes. The printed chip was then quenched on SPRi reader (MX96, Carterra) with 1 M ethanolamine for 15 minutes. For kinetics analysis, purified recombinant his tagged human […] (0, 2.05, 5.12, 12.8, 32, 80, 200, 500 nM) was injected sequentially. For each concentration, there was 5 minutes of association followed by 10 minutes of dissociation. Data were processed and analyzed in SPR Inspection Tool and Scrubber softwares. The kinetic data were referenced with the interstitial reference spots and double-referenced to a buffer cycle, and then fit globally to a 1:1 binding model to determine their apparent association and dissociation kinetic rate constants (kₐ and kd values). The ratio kd/kₐ was used to derive the KD value of each antigen/mAb interaction, i.e. KD=kd/kₐ.

[2] = molecular target: human BTN3A1 ectopically expressed on K32 cells (human, UniProt O00481 30-513); experiment: cell-based or functional assay
Sequence of human BTN3A1 ectopically expressed on K32 cells (O00481 30-513 limits assumed): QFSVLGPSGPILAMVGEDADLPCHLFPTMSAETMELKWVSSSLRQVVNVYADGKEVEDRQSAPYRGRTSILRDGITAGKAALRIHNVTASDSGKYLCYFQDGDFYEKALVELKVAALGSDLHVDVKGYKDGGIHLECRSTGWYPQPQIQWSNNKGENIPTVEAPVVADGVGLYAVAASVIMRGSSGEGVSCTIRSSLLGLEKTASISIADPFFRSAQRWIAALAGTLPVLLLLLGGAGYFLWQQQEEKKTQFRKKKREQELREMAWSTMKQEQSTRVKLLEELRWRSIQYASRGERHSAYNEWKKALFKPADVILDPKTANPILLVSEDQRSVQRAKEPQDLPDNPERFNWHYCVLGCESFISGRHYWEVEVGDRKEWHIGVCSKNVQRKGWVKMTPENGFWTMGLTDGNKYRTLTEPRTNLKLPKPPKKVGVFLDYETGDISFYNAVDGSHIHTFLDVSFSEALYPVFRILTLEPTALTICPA

T1 sequence (O00481 30-254 limits assumed): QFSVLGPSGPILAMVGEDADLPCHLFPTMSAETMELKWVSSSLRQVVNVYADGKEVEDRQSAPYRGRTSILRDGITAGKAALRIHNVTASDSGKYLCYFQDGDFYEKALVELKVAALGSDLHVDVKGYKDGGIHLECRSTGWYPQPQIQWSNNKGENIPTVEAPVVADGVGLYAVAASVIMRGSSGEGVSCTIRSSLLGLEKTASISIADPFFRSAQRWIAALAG

| Binder | Kd [1] [nM] | koff [1] [s⁻¹] | kon [1] [M⁻¹ s⁻¹] | IFN-γ release by purified CD4+ T cells stimulated with BTN-K32 cells [2] [fold] | IFN-γ release by purified CD8+ T cells stimulated with BTN-K32 cells [2] [fold] | proliferation of gated CD4+ T cells within total PBMCs co-cultured with anti-CD3/anti-CD28 coated BTN-K32 cells [2] [fold] | proliferation of gated CD8+ T cells within total PBMCs co-cultured with anti-CD3/anti-CD28 coated BTN-K32 cells [2] [fold] | proliferation of purified CD4+ T cells stimulated with BTN-K32 cells [2] [fold] | proliferation of purified CD8+ T cells stimulated with BTN-K32 cells [2] [fold] |
| --- | --- | --- | --- | --- | --- | --- | --- | --- | --- |
| anti-CD277 antibody mAb9 (antibody, V domains shown) VH: QVQLVQSGAEVKKPGASVKVSCKASGYTFNGYYIHWVRQAPGQGLEWMGWINSNSGGTKYAQKFQGRVTMTRDTSISTAYMELSRLRSDDTAVYYCARRHSDMIGYYYGMDVWGQGTTVTVSS VL: DIQLTQSPSSLSASVGDRVTITCRASQSISSYLNWYQQKPGKVPKLLIYAASTLQSGVPSRFSGSGSGTDFTLTISSLQPEDFATYSCQQTNSFPPTFGQGTKVEIKR | 6.82 | 9.71e-05 | 14200 | – | – | – | – | – | – |
| anti-CD277 antibody mAb2 (antibody, human IgG1, kappa, N297A, V domains shown) VH: QVQLVQSGAEVKKPGASVKVSCKASGYTFSNYYIHWVRQAPGQGLEWMGWINANSGGTKYAQKFQGRVTMTRDTSISTAYMELSRLRSDDTAVYYCARRHSDMIGYYYGMDVWGQGTTVTVSS VL: DIQMTQSPSSLSASVGDRVTITCRASQSIDRYLNWYQQKPGKAPKLLIYAASRLQSGVPSRFSGSGSGTDFTLTISSLQPEDFATYYCQQANSFPPTFGQGTRLEIKR | 2.68 | 4.89e-05 | 18300 | – | – | – | – | – | – |
| anti-CD277 monoclonal antibody mAb1 (antibody, V domains shown) VH: not shown VL: DIQMTQSPSSVSASVGDRVTITCRASQGISSWLAWYQQKPGKAPKLLIYAASSLQSGVPSRFSGSGSGTDFTLTISSLQPEDFATYYCQQATDFPPTFGGGTKVEIKR | 16.7 | 0.000384 | 23000 | ≥ 2 | ~1300 | ≥ 1.5 | ≥ 1.5 | ≥ 1.5 | ≥ 2 |
| anti-CD277 antibody mAb11 (antibody, human IgG1, kappa, N297A, V domains shown) VH: QVQLVQSGAEVKKPGASVKVSCKASGYTFSNYYIHWVRQAPGQGLEWMGWINANSGGTKYAQKFQGRVTMTRDTSISTAYMELSRLRSDDTAVYYCARRHSDMIGYYYGMDVWGQGTTVTVSS VL: DIQMTQSPSSLSASVGDRVTITCRASQSISSYLNWYQQKPGKAPKLLIYAASSLQSGVPSRFSGSGSGTDFTLTISSLQPEDFATYYCQQANTFPPTFGQGTRLEIKR | 5.13 | 9.36e-05 | 18200 | – | – | – | – | – | – |
| anti-CD277 antibody mAb8 (antibody, human IgG1, kappa, N297A, V domains shown) VH: not shown VL: DIQMTQSPSSLSASVGDRVTITCRASQSIDRYLNWYQQKPGKAPKLLIYAASRLQSGVPSRFSGSGSGTDFTLTISSLQPEDFATYYCQQANSFPPTFGQGTRLEIKR | 6.05 | 0.000138 | 22800 | – | – | – | – | – | – |
| anti-CD277 antibody mAb3 (antibody, human IgG1, kappa, N297A, V domains shown) VH: QVQLVQSGAEVKKPGASVKVSCKASGYTFNGYYIHWVRQAPGQGLEWMGWINSNSGGTKYAQKFQGRVTMTRDTSISTAYMELSRLRSDDTAVYYCARRHSDMIGYYYGMDVWGQGTTVTVSS VL: DIQMTQSPSSVSASVGDRVTITCRASQGISSWLAWYQQKPGKAPKLLIYAASSLQSGVPSRFSGSGSGTDFTLTISSLQPEDFATYYCQQATDFPPTFGGGTKVEIKR | 6.71 | 0.000121 | 18100 | – | – | – | – | – | – |
| anti-CD277 antibody mAb10 (antibody, human IgG1, kappa, N297A, V domains shown) VH: QVQLVQSGAEVKKPGASVKVSCKASGYTFTNYYMHWVRQAPGQGLEWMGWINVNSGVTKYAQKFQGRVTMTRDTSISTAYMELSRLRSDDTAVYYCARRHSDMIGYYYGMDVWGQGTTVTVSS VL: DIQMTQSPSSLSASVGDRVTITCRASQSISSYLNWYQQKPGKAPKLLIYAASSLQSGVPSRFSGSGSGTDFTLTISSLQPEDFATYYCQQANTFPPTFGQGTRLEIKR | 4.69 | 8.03e-05 | 17100 | – | – | – | – | – | – |
| anti-CD277 antibody mAb5 (antibody, human IgG1, kappa, N297A, V domains shown) VH: QVQLVQSGAEVKKPGASVKVSCKASGYTFSNYYIHWVRQAPGQGLEWMGWINANSGGTKYAQKFQGRVTMTRDTSISTAYMELSRLRSDDTAVYYCARRHSDMIGYYYGMDVWGQGTTVTVSS VL: DIQMTQSPSSVSASVGDRVTITCRASQGISSWLAWYQQKPGKAPKLLIYAASSLQSGVPSRFSGSGSGTDFTLTISSLQPEDFATYYCQQATDFPPTFGGGTKVEIKR | 12.9 | 0.00025 | 19300 | – | – | – | – | – | – |
| anti-CD277 antibody mAb7 (antibody, human IgG1, kappa, N297A, V domains shown) VH: not shown VL: DIQMTQSPSSLSASVGDRVTITCRASQDISVYLNWYQQKPGKAPKLLIYTASSLQSGVPSRFSGSGSGTDFTLTISSLQPEDFATYYCQQANSFPPTFGGGTKVDIKR | 6.69 | 0.000159 | 23700 | – | – | – | – | – | – |
| anti-CD277 antibody mAb4 (antibody, human IgG1, kappa, N297A, V domains shown) VH: QVQLVQSGAEVKKPGASVKVSCKASGYTFTNYYMHWVRQAPGQGLEWMGWINVNSGVTKYAQKFQGRVTMTRDTSISTAYMELSRLRSDDTAVYYCARRHSDMIGYYYGMDVWGQGTTVTVSS VL: DIQMTQSPSSVSASVGDRVTITCRASQGISSWLAWYQQKPGKAPKLLIYAASSLQSGVPSRFSGSGSGTDFTLTISSLQPEDFATYYCQQATDFPPTFGGGTKVEIKR | 10.1 | 0.00019 | 18800 | – | – | – | – | – | – |
| anti-CD277 antibody mAb6 (antibody, human IgG1, kappa, N297A, V domains shown) VH: not shown VL: DIQMTQSPSSLSASVGDRVTITCRASQSISLFLNWYQQKPGKAPKLLIYTASSLQSGVPSRFSGSGSGTDFTLTISSLQPEDFATYYCQQANSFPPTFGGGTKVDIKR | 4.37 | 0.000118 | 27100 | – | – | – | – | – | – |
